System: MS2 coat protein
Experiment: apparent KD of MS2 coat protein, switch ON state; designed switch direction (-1 OFF switch, 1 ON switch): -1; higher = weaker reporter binding
Conditions: FMN input: 0 or 200 uM; Eterna round: R93 (includes R88 designs)
Procedure, shortened: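 Apparent KD was obtained for each design as the median of normalised binding-curve fits over its clusters. RNA switches transcribed on-chip from Illumina sequencing clusters were titrated with SNAP-549-labelled MS2 coat protein (twofold steps, 0.7 or 1.5 nM to 3 µM) in 100 mM Tris-HCl pH 7.5, 80 mM KCl, 4 mM MgCl2, without or with constant ligand.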

For “AAAAGGUGAGGAUAUACGAAAAAAAAAAAAAAAAAAAAAAAGUAGAAGGCACAUGAGGAUCACCCAUGUAAAAA [LROPPY Exclusion 4 - v01_deltaG=2.54]”, which “apparent KD of MS2 coat protein” value is on record?
Its value is 31.3 nM.

“GGGCCACAUGAGGAUCACCCAUGUAAGGAUAUGCUAGGGAUGGAAAAAAUUACGCAAAGCAGAAGGUACUAAAG [Janelle Amethyst 18 Mod 9 - Jieux - Exclusion 1]” was tested. Which “apparent KD of MS2 coat protein” value did it give?
Its value is 26.9 nM.

Which “apparent KD of MS2 coat protein” value does the source give for “AAUAACAGAGGAUAUGCAAAAAUAAGCGGAAACGCAAGAAAACAUGAGGAUCACCCAUGUAGAAGGCUGGAUAA [Tetraloop hairpin BlockHead Variations]” here?
Its value is 24.6 nM.

For “CUCUUGUGAGGAUAUGAAAGAAAAGAAGAGAAAGAAAAGAAUCAGAAGGCACAUGAGGAUCACCCAUGUAAGAA [EteRNA is fun!]”, which “apparent KD of MS2 coat protein” value is on record?
Its value is 27.4 nM.

For “AGAAUACAUGAGGAUCACCCAUGUGAGGAUAUCAGAAGAAAAAGAAAAGAAAAGAAACUGAGAAGGCACAAAAG [EX 1 May 15]”, which “apparent KD of MS2 coat protein” value is on record?
The value was 35.7 nM.

“AUAGGCCUAGGAUAUACAUGAGGAUCACCCAUGUAAACAGAUAGAUCAAGGUAAACGAGUAGAAGGAGGAAUAA [JR_Exc003_Sub209]” was tested. Which “apparent KD of MS2 coat protein” value did it give?
The value was 22 nM.

How did the “apparent KD of MS2 coat protein” value turn out when “AAAGGACGAGGAUAUACAUGAGGAUCACCCAUGUAAAAAACAUAAUAAAAGAAUAUAUGUAGAAGGCGUCCAAA [Ruby 59]” was run?
Its value is 18.7 nM.

Which “apparent KD of MS2 coat protein” value does the source give for “CUCUAGUCAGGAUAUGGAAGAAAAGAAGAGAAAGAAAAGAACCAGAAGGGACAUGAGGAUCACCCAUGUAAGAA [EteRNA is fun!]” here?
Its value is 78.2 nM.

For “AAAAAGGUAGGAUAUACAUGAGGAUCACCCAUGUAAAUAAAUGGAGAAAAAAACAAUUGUAGAAGGGCCAAAAA [Ex3 Malc#8]”, which “apparent KD of MS2 coat protein” value is on record?
Its value is 39.9 nM.

“UCGAUGUCAGGAUAUGUGUAAAGAAUAAAACAAAUAACAACACAGAAGGGACAUGAGGAUCACCCAUGUUACGA [May 42]” was tested. Which “apparent KD of MS2 coat protein” value did it give?
The value was 42.2 nM.

“AACUGACAUGAGGAUCACCCAUGUCAGGAUAUGACUUGAAAAAUAAAAUAAAAACAUGUCAGAAGGGACAUGGG [Design 54 :P Sub-opt H]” was tested. Which “apparent KD of MS2 coat protein” value did it give?
The value was 20.2 nM.

With “AGCUAGUCAGGAUAUACGAACAUGUCAAAAGACGUGAAUAAACAUGAGGAUCACCCAUGUAGAAGGGACUAGCA [Mat - Exclusion 2 - JL-Eli mod - D53]” as the sequence, how does the “apparent KD of MS2 coat protein” value read?
Its value is 18.3 nM.

For “AACAGUACAGGAUAUACAUGAGGAUCACCCAUGUAGGGAUAAAGUGGCGUACCACAAAGUAGAAGGGUACUGGA [Moding Maslow revisited (73) 4]”, which “apparent KD of MS2 coat protein” value is on record?
The value was 30.6 nM.

Which “apparent KD of MS2 coat protein” value does the source give for “AAGAAAGGAGGAUAUACAAAAUAAAAGAAAAGAAAGAAAGAACAUGAGGAUCACCCAUGUAGAAGGCCUAAGAA [Merhotepre Sobekhotep V]” here?
Its value is 23.5 nM.

“AACAGUACAGGAUAUACAUGAGGAUCACCCAUGUGAAAAUUAAGUGGCGUACCACAAUGUAGAAGGGUACUGGA [Moding Maslow Revisited (73) 24]” was tested. Which “apparent KD of MS2 coat protein” value did it give?
Its value is 110 nM.

How did the “apparent KD of MS2 coat protein” value turn out when “AGCUAGUCAGGAUAUACGAACAUGUCAAAAGACGUGAAGGGACAUGAGGAUCACCCAUGUAGAAGGGACUAGCA [WEB mod]” was run?
Its value is 35.4 nM.

How did the “apparent KD of MS2 coat protein” value turn out when “AUAAUGAGAGGAUAUACAUGAGGAUCACCCAUGUAAUUAACACGGCGAGCACCAAUACGUAGAAGGCUCAUUUA [JR_Exc003+Sub602]” was run?
Its value is 22.4 nM.

Which “apparent KD of MS2 coat protein” value does the source give for “AAGAAGUGAGGAUAUACAUGAGGAUCACCCAUGUAAAGAAGAAGAGGAGAGAAUAAAGGUAGAAGGCACAAGAA [JR_Exclusion3_Sub4]” here?
The value was 33.6 nM.

How did the “apparent KD of MS2 coat protein” value turn out when “AAGAGUAGAGGAUAUACGGGAAAAGAGUCGAAAGACUCAAAACAUGAGGAUCACCCAUGUAGAAGGCUACUCAA [Hyphema Seclusion Mod 62% 6]” was run?
Its value is 87.7 nM.

Which “apparent KD of MS2 coat protein” value does the source give for “AAGAAGUGAGGAUAUGUCUGUGCGAAAAAAAAAAAGUGCAGACAGAAGGCACAUGAGGAUCACCCAUGUGGAAA [Florian 65% 5]” here?
The value was 27.8 nM.

For “AAGAAUGCAGGAUAUACAUGAAAGAAAGAAAAGAAAAGAAAACAUGAGGAUCACCCAUGUAGAAGGGCAUAGAA [EteRNA is fun!]”, which “apparent KD of MS2 coat protein” value is on record?
Its value is 26.8 nM.

With “CCACAGGUAGGAUAUGCUGGGUGGGAUAAAUAAUUCCUGUGACAUGAGGAUCACCCAUGUAGAAGGACCAAAAG [Rixela]” as the sequence, how does the “apparent KD of MS2 coat protein” value read?
Its value is 22.9 nM.

For “AAAAAUGGAGGAUAUACAUGAGGAUCACCCAUGUGUAAAAAAAAUUACACAAAAGAAAGUAGAAGGCCAUAAAA [Ex 3 Warm]”, which “apparent KD of MS2 coat protein” value is on record?
Its value is 59.7 nM.

For “AAGGGACAUGAGGAUCACCCAUGUCAGGAUAUGCUAUGGAAAUAAAAAAUAAAACAUAGCAGAAGGGACAAAAA [Mat - Exclusion 1 - Eli mod - D33]”, which “apparent KD of MS2 coat protein” value is on record?
Its value is 41.2 nM.

“AAUUAGGUAGGAUAUACAUGAGGAUCACCCAUGUGGAAAAAAAACUACGAAAAAGAAUGUAGAAGGACCUAAAA [Ex 3 Frozen]” was tested. Which “apparent KD of MS2 coat protein” value did it give?
The value was 18.8 nM.

“AGAAAGUCAGGAUAUACGAACAAGAAAAAAGACGAGAACGGACAUGAGGAUCACCCAUGUAGAAGGGACAAGAA [Diamond 13]” was tested. Which “apparent KD of MS2 coat protein” value did it give?
Its value is 73.5 nM.

For “ACCACACAUGAGGAUCACCCAUGUGAGGAUAUCUAGAAAACCUCAUGUAAAAAAAUCUAGAGAAGGCAUAUGAA [Design 93: Pseudoknot C]”, which “apparent KD of MS2 coat protein” value is on record?
Its value is 38.3 nM.

With “AAGAAGUCAGGAUAUGCUAAAGAAAUGAAAAGAAAGAAAGAACAUGAGGAUCACCCAUGUAGAAGGGACAAGAA [Dedumose I]” as the sequence, how does the “apparent KD of MS2 coat protein” value read?
Its value is 47.1 nM.

For “AAAAAACAUGAGGAUCACCCAUGUGAGGAUAUGAUGCGAAUAAAGAAAGAAGAAAGCAUCAGAAGGCACACCAA [58%, Disencluded 3, 1]”, which “apparent KD of MS2 coat protein” value is on record?
The value was 29.4 nM.

How did the “apparent KD of MS2 coat protein” value turn out when “AAAAAACAUGAGGAUCACCCAUGUGAGGAUAUGCGAAAAUAAAAUAAAAUAAAUAAAAGCAGAAGGCACAAAAA [Mat - Exclusion 1 - Eli mod - D59]” was run?
Its value is 41.1 nM.

For “AAAGGAUCAGGAUAUGCGUGGAAAAAGUGUAUUCAAAAAAAACAUGAGGAUCACCCAUGUAGAAGGGAUCCAAA [Normal (20/19)]”, which “apparent KD of MS2 coat protein” value is on record?
Its value is 140 nM.

“AGGAAACAUGAGGAUCACCCAUGUCAGGAUAUAGGAAAGAAAAGAAAAGAAAGAAGAAUUAGAAGGGACAAGAA [King Scorpion]” was tested. Which “apparent KD of MS2 coat protein” value did it give?
The value was 23.5 nM.

How did the “apparent KD of MS2 coat protein” value turn out when “GGGUAGUCAGGAUAUACAAACAUGUCAAAAGACGUGAAAAAACAUGAGGAUCACCCAUGUAGAAGGGACUACCC [Mat - Exclusion 2 - JL mod - D20]” was run?
Its value is 17.8 nM.

For “AAAAAGUGAGGAUAUGGUAAAAAAAAAAAAAAAAAAAAAAUCCAGAAGGCACAUGAGGAUCACCCAUGUAAAAA [Jolly Cotton - Jieux - Exclusion 4]”, which “apparent KD of MS2 coat protein” value is on record?
Its value is 46.2 nM.

With “AAAACACAUGAGGAUCACCCAUGUGAGGAUAUGCUAUGGAAAUAAAAAAUAAAACAUAGCAGAAGGCGCAGGAA [Mat - Exclusion 1 - Eli mod - D47]” as the sequence, how does the “apparent KD of MS2 coat protein” value read?
The value was 25.2 nM.

Which “apparent KD of MS2 coat protein” value does the source give for “AAGGGACAUGAGGAUCACCCAUGUCAGGAUAUGCUAUGGAAAAUAAAAAUAAAACAUAGCAGAAGGGAUAAAAA [Denovo 3]” here?
The value was 20.2 nM.

With “AAGAAAGCAGGAUAUACAUGAGGAUCACCCAUGUAAAAGAAAGAAAGGGAAAAGAAAAGUAGAAGGGCUAAGAA [Usermaatre-setepenre Pami]” as the sequence, how does the “apparent KD of MS2 coat protein” value read?
The value was 23.6 nM.

For “AAAACGUCAGGAUAUACAGAAGAGAUCACAAAAAAAAAAAAACAUGAGGAUCACCCAUGUAGAAGGGACAAAAA [Ex2 Malc#2]”, which “apparent KD of MS2 coat protein” value is on record?
The value was 111 nM.

How did the “apparent KD of MS2 coat protein” value turn out when “AAAAGGGCAGGAUAUGCGUACUCACGGAAAAACUGGAUGGUACAUGAGGAUCACCCAUGUAGAAGGGCUAAAAA [Dora Explored 17 - Jieux - Exclusion 2]” was run?
Its value is 57.5 nM.

With “AGGAAACAUGAGGAUCACCCAUGUCAGGAUAUAGAAAAGAAAAGAAAAGAAAGAAGAACUAGAAGGGACAAGAA [Scorpion I]” as the sequence, how does the “apparent KD of MS2 coat protein” value read?
Its value is 27.7 nM.

“AAAAAUGGAGGAUAUACAUGAGGAUCACCCAUGUUAGAACAAAAAAAAGGGAAAGAAAGUAGAAGGCCAUAAAA [Ex 3 May 25]” was tested. Which “apparent KD of MS2 coat protein” value did it give?
Its value is 34.7 nM.

With “AAAAAACAUGAGGAUCACCCAUGUAAGGAUAUGCAAAAUAAAAGAAAUAAAAAGAAAAGCAGAAGGUACAUUAA [JL wbt mod 9]” as the sequence, how does the “apparent KD of MS2 coat protein” value read?
Its value is 23.6 nM.

With “AAAAAACAUGAGGAUCACCCAUGUGAGGAUAUCGGAAAAGGAAAAAUAAAAAAGAAGACGAGAAGGCACACCAA [Mat - Exclusion 1 - Eli mod - D74]” as the sequence, how does the “apparent KD of MS2 coat protein” value read?
Its value is 20.9 nM.

Which “apparent KD of MS2 coat protein” value does the source give for “AAACCACAUGAGGAUCACCCAUGUCAGGAUAUGCUAUGGAAAAAUAAAAUAAAACAUAGCAGAAGGGACAAAAA [Mat - Exclusion 1 - Eli mod - D34]” here?
Its value is 31.1 nM.
